Assay [1] concerns the target T1, IL-11 (Cat. 12225-HNCE, Sino Biological Inc.) (UniProt P20809 22-199, limits assumed).
T1 sequence (looked up): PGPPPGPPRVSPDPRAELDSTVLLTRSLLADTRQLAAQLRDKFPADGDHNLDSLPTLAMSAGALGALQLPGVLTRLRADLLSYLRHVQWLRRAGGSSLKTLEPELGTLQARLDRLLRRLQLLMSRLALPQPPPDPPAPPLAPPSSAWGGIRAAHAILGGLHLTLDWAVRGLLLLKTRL
Description: cell-based or functional assay.

Assay [2] deals with T2, human IL-11 (AAH12506.1, Pro22-Leu199) (human, UniProt P20809 22-199).
T2 construct: The range Pro22-Leu199 counts on AAH12506.1; The Octet runs say only 'human IL-11'; also called hIL-11
T2 chain: T1 sequence (looked up) with H154L
The assay can be described thus: BLI (Octet), antibody captured, human IL-11 in solution. The gist of the method:
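Bio-layer interferometry on a Fortebio Octet QKe System. Antibodies (hybridoma supernatant or purified, diluted in HBS-EP+ buffer) were captured on anti-mouse IgG Fc (AMC) or anti-human Fc (AHC) biosensors. Human IL-11 at 300 nM in HBS-EP+ buffer flowed over, with 300 seconds association and 300 seconds dissociation. Blank-subtracted curves were fitted to a 1:1 Langmuir binding model to derive kon, koff and Kd.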
(In BLI a coated tip is dipped into the sample, and binding shifts an interference pattern.)

Substitutions are numbered along the chain they refer to.

B1: hz18A10-VH + hz18A10-VLm18 (antibody, V domains shown)
VH: EVQLVQSGAEVKKPGASVKVSCKASGYTFTTYNMDWVRQAPGQGLEWMGTIYPGNGDTSYNQKFKGRVTMTRDTSTSTVYMELSSLRSEDTAVYYCARGDLYALDYWGQGTLVTVSS
VL: DIQMTQSPSSLSASVGDRVTITCKASQSVYRDVAWYQQKPGKAPKLLIYRASSRYTGVPSRFSGSGSGTDFTFTISSLQPEDIATYYCQHDYSSPYTFGQGTKLEIK
notes: Constant regions not restated for this antibody
On to B1, for which the “Blocking activity (IC50), STAT3-luc reporter” value (shortened to “Blocking activity (IC50)”) in assay [1] turned out to be 4.38 µg/mL. Besides, in assay [2], the Kd (as a rule, the constant that tells how readily two partners part at equilibrium) was determined as 0.419 nM; the koff – broadly, the rate constant with which the complex falls apart – came to 0.0003 s⁻¹; the kon – broadly, the second-order rate constant of association – was determined as 716000 M⁻¹ s⁻¹.

B2: hz18A10-VHm13 + hz18A10-VLm19 (antibody, V domains shown)
VH: B1 VH with T31H, N33E
VL: B1 VL with R50S, S53N
notes: as for B1
Take B2: the “Blocking activity (IC50)” value in assay [1] is 0.338 µg/mL. In addition, in assay [2], the Kd came to 0.203 nM, the koff is 0.000148 s⁻¹ and the kon stood at 729000 M⁻¹ s⁻¹.

B3: hz18A10-VHm9 + hz18A10-VLm19 (antibody, V domains shown)
VH: B1 VH with N33D, D35S
VL: B1 VL with R50S, S53N
notes: as for B1
For the molecule B3, in assay [1], the “Blocking activity (IC50)” value is 0.99 µg/mL. In assay [2], this molecule yielded a Kd of 0.538 nM, an off-rate (koff) of 0.000448 s⁻¹ and a kon of 833000 M⁻¹ s⁻¹.

B4: hz18A10-VHm12 + hz18A10-VLm19 (antibody, V domains shown)
VH: B1 VH with T31H, N33D
VL: B1 VL with R50S, S53N
notes: as for B1
Take B4: in assay [1], the “Blocking activity (IC50)” value worked out at 0.011 µg/mL. In assay [2], this molecule displayed a Kd of 0.185 nM, a koff of 0.000173 s⁻¹ and an on-rate constant (kon) of 934000 M⁻¹ s⁻¹.

B5: hz18A10-VHm1 + hz18A10-VLm7 (antibody, V domains shown)
VH: B1 VH with Y102H, A103F
VL: B1 VL with Y30F, R50S, S53N
notes: as for B1
As for B5, the “Blocking activity (IC50)” value in assay [1] worked out at 13.1 µg/mL. Moreover, in assay [2], the Kd is 2.4 nM, the koff came to 0.0013 s⁻¹ and the kon is 544000 M⁻¹ s⁻¹.

B6: hz18A10-VHm5 + hz18A10-VLm9 (antibody, V domains shown)
VH: B1 VH with T30I, V79A, G99A, Y102H, A103F
VL: B1 VL with R31S, R50S, S53N
notes: as for B1
As for B6, the “Blocking activity (IC50)” value in assay [1] was 11.6 µg/mL. Besides, in assay [2], binding was characterised by a dissociation constant (Kd) of 1.15 nM, the off-rate constant (koff) was 0.000732 s⁻¹ and the kon came to 639000 M⁻¹ s⁻¹.

B7: hz18A10-VHm1 + hz18A10-VLm11 (antibody, V domains shown)
VH: B1 VH with Y102H, A103F
VL: B1 VL with Y30S, R31N, S53N
notes: as for B1
With B7, the “Blocking activity (IC50)” value in assay [1] was found to be 7.4 µg/mL. In addition, in assay [2], binding was put at a Kd of 0.825 nM, the koff came to 0.000287 s⁻¹ and the kon turned out to be 348000 M⁻¹ s⁻¹.

B8: hz18A10-VHm14 + hz18A10-VLm19 (antibody, V domains shown)
VH: B1 VH with T31H, N33Q
VL: B1 VL with R50S, S53N
notes: as for B1
With B8, in assay [1], the “Blocking activity (IC50)” value is 1.03 µg/mL. In addition, in assay [2], the Kd came to 0.678 nM, the koff is 0.000485 s⁻¹ and the kon is 716000 M⁻¹ s⁻¹.

B9: hz18A10-VHm2 + hz18A10-VL (antibody, V domains shown)
VH: B1 VH with Y102H, A103Y
VL: B1 VL with Y30S, R31N, R50S, S53N
notes: as for B1
Regarding B9, the “Blocking activity (IC50)” value in assay [1] was found to be 11.6 µg/mL. In assay [2], this molecule returned a Kd of 2.29 nM, a koff of 0.00158 s⁻¹ and a kon of 692000 M⁻¹ s⁻¹.

B10: hz18A10-VHm2 + hz18A10-VLm9 (antibody, V domains shown)
VH: B1 VH with Y102H, A103Y
VL: B1 VL with R31S, R50S, S53N
notes: as for B1
As to B10, the “Blocking activity (IC50)” value in assay [1] stood at 13.9 µg/mL. Besides, in assay [2], the Kd was determined as 2.33 nM, the koff is 0.000941 s⁻¹ and the kon was 404000 M⁻¹ s⁻¹.

B11: hz18A10-VHm10 + hz18A10-VLm19 (antibody, V domains shown)
VH: B1 VH with T30N, T31H
VL: B1 VL with R50S, S53N
notes: as for B1
On to B11, for which the “Blocking activity (IC50)” value in assay [1] was determined as 0.136 µg/mL. Besides, in assay [2], binding was put at a Kd of 0.235 nM, the koff was found to be 0.000216 s⁻¹ and the kon was 917000 M⁻¹ s⁻¹.

B12: hz18A10-VHm1 + hz18A10-VLm14 (antibody, V domains shown)
VH: B1 VH with Y102H, A103F
VL: B1 VL with Y30S, R31N, S53R
notes: as for B1
In the case of B12, the “Blocking activity (IC50)” value in assay [1] was determined as 9.68 µg/mL. In assay [2], this molecule returned a Kd of 1.03 nM, a koff of 0.000341 s⁻¹ and an association rate constant (kon) of 330000 M⁻¹ s⁻¹.

B13: hz18A10-VHm6 + hz18A10-VLm9 (antibody, V domains shown)
VH: B1 VH with T30N, T31H, N33D
VL: B1 VL with R31S, R50S, S53N
notes: as for B1
As to B13, the “Blocking activity (IC50)” value in assay [1] stood at 0.034 µg/mL. In assay [2], this molecule returned a Kd of 0.00718 nM, an off-rate (koff) of 7.17e-06 s⁻¹ and a kon of 999000 M⁻¹ s⁻¹.

B14: hz18A10-VHm6 + hz18A10-VLm19 (antibody, V domains shown)
VH: B1 VH with T30N, T31H, N33D
VL: B1 VL with R50S, S53N
notes: as for B1
With B14, the “Blocking activity (IC50)” value in assay [1] came out at 0.017 µg/mL. In assay [2], the Kd was determined as 0.213 nM, the koff was determined as 0.000194 s⁻¹ and the kon was 911000 M⁻¹ s⁻¹.

B15: hz18A10-VHm8 + hz18A10-VLm19 (antibody, V domains shown)
VH: B1 VH with N33D, D35H
VL: B1 VL with R50S, S53N
notes: as for B1
In the case of B15, the “Blocking activity (IC50)” value in assay [1] was determined as 8.64 µg/mL. In addition, in assay [2], the affinity, expressed as Kd, was 1.44 nM; the koff came to 0.0011 s⁻¹; the kon turned out to be 760000 M⁻¹ s⁻¹.

B16: hz18A10-VHm2 + hz18A10-VLm11 (antibody, V domains shown)
VH: B1 VH with Y102H, A103Y
VL: B1 VL with Y30S, R31N, S53N
notes: as for B1
For the molecule B16, the “Blocking activity (IC50)” value in assay [1] came to 9.46 µg/mL. Moreover, in assay [2], binding was put at a Kd of 1.01 nM, the koff came to 0.000317 s⁻¹ and the kon was found to be 314000 M⁻¹ s⁻¹.

B17: hz18A10-VHm1 + hz18A10-VL (antibody, V domains shown)
VH: B1 VH with Y102H, A103F
VL: B1 VL with Y30S, R31N, R50S, S53N
notes: as for B1
On to B17, for which the “Blocking activity (IC50)” value in assay [1] was 10.9 µg/mL. In assay [2], this molecule had a Kd of 2.17 nM, a koff of 0.00139 s⁻¹ and a kon of 640000 M⁻¹ s⁻¹.

B18: hz18A10-VHm11 + hz18A10-VLm19 (antibody, V domains shown)
VH: B1 VH with T31H
VL: B1 VL with R50S, S53N
notes: as for B1
With B18, the “Blocking activity (IC50)” value in assay [1] came out at 0.112 µg/mL. In assay [2], this molecule had a Kd of 0.138 nM, a koff of 0.000119 s⁻¹ and a kon of 862000 M⁻¹ s⁻¹.

B19: hz18A10-VHm3 + hz18A10-VLm9 (antibody, V domains shown)
VH: B1 VH with N33D
VL: B1 VL with R31S, R50S, S53N
notes: as for B1
For the molecule B19, the “Blocking activity (IC50)” value in assay [1] came to 0.248 µg/mL. In assay [2], this molecule returned a Kd of 0.0959 nM, a koff of 9.7e-05 s⁻¹ and a kon of 1.01e+06 M⁻¹ s⁻¹.

B20: hz18A10-VHm7 + hz18A10-VLm19 (antibody, V domains shown)
VH: B1 VH with N33D, M34I
VL: B1 VL with R50S, S53N
notes: as for B1
Regarding B20, the “Blocking activity (IC50)” value in assay [1] is 1.22 µg/mL. In assay [2], this molecule returned a Kd of 0.105 nM, a koff of 0.000113 s⁻¹ and a kon of 1.08e+06 M⁻¹ s⁻¹.

B21: hz18A10-VHm4 + hz18A10-VLm9 (antibody, V domains shown)
VH: B1 VH with M34I
VL: B1 VL with R31S, R50S, S53N
notes: as for B1
For B21, in assay [1], the “Blocking activity (IC50)” value was 2.23 µg/mL. In assay [2], this molecule gave a Kd of 0.488 nM, a koff of 0.000496 s⁻¹ and a kon of 1.02e+06 M⁻¹ s⁻¹.

B22: hz18A10-VHm3 + hz18A10-VLm19 (antibody, V domains shown)
VH: B1 VH with N33D
VL: B1 VL with R50S, S53N
notes: as for B1
With B22, in assay [1], the “Blocking activity (IC50)” value is 0.262 µg/mL. In assay [2], binding was put at a Kd of 0.683 nM, the koff came to 0.000652 s⁻¹ and the kon is 954000 M⁻¹ s⁻¹.

B23: hz18A10-VHm1 + hz18A10-VLm15 (antibody, V domains shown)
VH: B1 VH with Y102H, A103F
VL: B1 VL with Y30S, R31N
notes: as for B1
Consider B23, for which the “Blocking activity (IC50)” value in assay [1] amounted to 1.88 µg/mL. In assay [2], this molecule returned a Kd of 0.585 nM, a koff of 0.000265 s⁻¹ and a kon of 453000 M⁻¹ s⁻¹.

B24: hz18A10-VHm1 + hz18A10-VLm9 (antibody, V domains shown)
VH: B1 VH with Y102H, A103F
VL: B1 VL with R31S, R50S, S53N
notes: as for B1
On to B24, for which the “Blocking activity (IC50)” value in assay [1] was found to be 11.1 µg/mL. Also, in assay [2], the Kd came out at 2.01 nM, the koff is 0.000963 s⁻¹ and the kon worked out at 479000 M⁻¹ s⁻¹.

B25: hz18A10-VHm4 + hz18A10-VLm18 (antibody, V domains shown)
VH: B1 VH with M34I
VL: B1 VL
notes: as for B1
Take B25: in assay [1], the “Blocking activity (IC50)” value amounted to 1.94 µg/mL. In addition, in assay [2], binding was put at a Kd of 0.322 nM, the koff was 0.000266 s⁻¹ and the kon came to 826000 M⁻¹ s⁻¹.

The values above are taken from US20250197488A1 (MABWELL SHANGHAI BIOSCIENCE, published 2025).
